Results: PMC5626548

Columns and labels:
[1] = biological target: full-length BICD2 F739I (mouse) (UniProt Q921C5); assay: pull-down
[2] = biological target: full-length BICD2 I189F (mouse) (UniProt Q921C5); assay: pull-down
[3] = biological target: full-length BICD2 N188T (mouse) (UniProt Q921C5); assay: pull-down
[4] = biological target: full-length BICD2 S107L (mouse) (UniProt Q921C5); assay: pull-down
[5] = biological target: full-length BICD2 (Bicaudal D2), wild type (mouse) (UniProt Q921C5); assay: pull-down
[6] = biological target: Rab6a^GTP (Rab6a–Q72L, aa 8–195, KCK motif) linked to liposomes (mouse) (UniProt P35279); assay: fluorescence intensity of BICD2–GFP on liposomes

ratio of band intensity, mutant to WT BICD2 (lysate only) [1]	ratio of band intensity, mutant to WT BICD2 (lysate only) [2]	ratio of band intensity, mutant to WT BICD2 (lysate only) [3]	ratio of band intensity, mutant to WT BICD2 (lysate only) [4]	fold increase of the pull-down at the highest Rab6a^GTP concentration [5] [fold]	BICD2 molecules per Rab6a^GTP liposome (molecules per liposome) [6]	Substance
1.95	1.61	2.24	2.44			cytoplasmic dynein, endogenous in porcine brain lysate (complex)
3.65	1.88	3.86	2.88	10		dynactin, endogenous in porcine brain lysate (from UniProt A0A287B8J2 1-1281) (complex)
					6.01	full-length BICD2 (Bicaudal D2), wild type (from UniProt Q921C5 1-820) (natural protein)
